From patent US20240415889A1 (published 2024)
Changes are numbered by the printed parent chain.

Columns and labels:
[1] = target: T1, single chain CD94/NKG2A-Fc (CD94/NKG2A-IgG1 fusion polypeptide); assay: ELISA; FIG. 27
[2] = target: T1, single chain CD94/NKG2A-Fc …; assay: competitive ELISA (HLA-E tetramer)
[3] = target: T1, single chain CD94/NKG2A-Fc …; assay: BLI
[4] = target: T1, single chain CD94/NKG2A-Fc …; assay: competitive ELISA (HLA-E tetramer); FIG. 26

T1 sequence (chain, as listed by the source): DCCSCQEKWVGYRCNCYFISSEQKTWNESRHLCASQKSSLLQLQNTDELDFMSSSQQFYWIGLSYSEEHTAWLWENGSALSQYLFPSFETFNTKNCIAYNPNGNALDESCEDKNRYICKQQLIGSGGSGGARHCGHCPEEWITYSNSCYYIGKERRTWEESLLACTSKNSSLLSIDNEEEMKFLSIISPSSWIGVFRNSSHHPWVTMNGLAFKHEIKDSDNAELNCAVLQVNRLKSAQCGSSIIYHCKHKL

B1: IgG Clone #2 (1B2-6, IgG1-LALA-PG) (antibody, V domains shown)
VH: EVQLVESGGGLVKPGGSLRLSCAASGFTFSGYYMSWIRQAPGKGLEWLAYISNSGRTIYYADSVKGRFTISRDNSNSSLYLQMNSLRAEDTAVYYCARGFYMDAWGKGTTVTVSS
VL: DIQMTQSPSSLSASVGDRVTITCRASQSISSYLNWYQQKPGKAPKLLIYAASSLQSGVPSRFSGSGSGTDFTLTISSLQPEDFGVYYCQYYGISPPFTFGPGTKVDIKR
In the case of B1, the EC50 [1] is reported as 0.64 nM and the IC50 [2] is reported as 1.4 nM.

B2: IgG Clone #1 (1B2, IgG1-LALA-PG) (antibody, V domains shown)
VH: B1 VH with E1Q, G31D, L48V, A49S, N53S, R56S, S75A, N76K, S77N
VL: B1 VL
Work on B2 yielded a Kd [3] of 1.14 nM, an EC50 [1] of 1.6 nM and an IC50 [2] of 9.6 nM. The IC50 [4] was 20 nM.
